Laboratory results published in IntAct's records for PubMed 16814718.

B1: Recombination protein 107 (Saccharomyces cerevisiae), P21651 (parent)
chain: MVARGRTDEISTDVSEANSEHSLMITETSSPFRSIFSHSGKVANAGALEESDKQILEWAGKLELESMELRENSDKLIKVLNENSKTLCKSLNKFNQLLEQDAATNGNVKTLIKDLASQIENQLDKVSTAMLSKGDEKKTKSDSSYRQVLVEEISRYNSKITRHVTNKQHETEKSMRCTQEMLFNVGSQLEDVHKVLLSLSKDMHSLQTRQTALEMAFREKADHAYDRPDVSLNGTTLLHDMDEAHDKQRKKSVPPPRMMVTRSMKRRRSSSPTLSTSQNHNSEDNDDASHRLKRAARTIIPWEELRPDTLESEL
partner: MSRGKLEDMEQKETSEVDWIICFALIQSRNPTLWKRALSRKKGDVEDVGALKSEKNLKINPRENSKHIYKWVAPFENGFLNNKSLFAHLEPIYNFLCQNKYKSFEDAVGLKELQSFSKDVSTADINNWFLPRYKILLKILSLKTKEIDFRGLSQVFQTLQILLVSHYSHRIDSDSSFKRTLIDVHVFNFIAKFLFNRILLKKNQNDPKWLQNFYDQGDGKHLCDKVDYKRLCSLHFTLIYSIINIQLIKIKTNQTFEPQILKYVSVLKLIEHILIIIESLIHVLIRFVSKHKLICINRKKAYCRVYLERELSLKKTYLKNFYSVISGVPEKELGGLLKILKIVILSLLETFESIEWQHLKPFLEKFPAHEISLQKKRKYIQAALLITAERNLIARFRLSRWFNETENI
B2: Recombination protein 107 (Saccharomyces cerevisiae), P21651 (parent)
chain: B1 chain
partner: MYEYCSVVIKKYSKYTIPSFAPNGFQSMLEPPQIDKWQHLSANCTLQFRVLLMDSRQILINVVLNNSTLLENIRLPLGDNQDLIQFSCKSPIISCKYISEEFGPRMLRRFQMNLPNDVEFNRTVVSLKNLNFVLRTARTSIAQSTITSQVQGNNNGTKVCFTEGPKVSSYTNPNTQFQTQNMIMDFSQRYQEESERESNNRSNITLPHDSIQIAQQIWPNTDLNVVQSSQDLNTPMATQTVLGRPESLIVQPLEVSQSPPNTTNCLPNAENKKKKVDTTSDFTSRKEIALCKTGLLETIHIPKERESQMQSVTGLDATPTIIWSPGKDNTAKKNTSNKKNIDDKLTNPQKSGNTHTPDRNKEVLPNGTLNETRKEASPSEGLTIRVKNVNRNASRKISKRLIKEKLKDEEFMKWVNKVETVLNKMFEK
B3: Recombination protein 107 (Saccharomyces cerevisiae), P21651 (parent)
chain: B1 chain
partner: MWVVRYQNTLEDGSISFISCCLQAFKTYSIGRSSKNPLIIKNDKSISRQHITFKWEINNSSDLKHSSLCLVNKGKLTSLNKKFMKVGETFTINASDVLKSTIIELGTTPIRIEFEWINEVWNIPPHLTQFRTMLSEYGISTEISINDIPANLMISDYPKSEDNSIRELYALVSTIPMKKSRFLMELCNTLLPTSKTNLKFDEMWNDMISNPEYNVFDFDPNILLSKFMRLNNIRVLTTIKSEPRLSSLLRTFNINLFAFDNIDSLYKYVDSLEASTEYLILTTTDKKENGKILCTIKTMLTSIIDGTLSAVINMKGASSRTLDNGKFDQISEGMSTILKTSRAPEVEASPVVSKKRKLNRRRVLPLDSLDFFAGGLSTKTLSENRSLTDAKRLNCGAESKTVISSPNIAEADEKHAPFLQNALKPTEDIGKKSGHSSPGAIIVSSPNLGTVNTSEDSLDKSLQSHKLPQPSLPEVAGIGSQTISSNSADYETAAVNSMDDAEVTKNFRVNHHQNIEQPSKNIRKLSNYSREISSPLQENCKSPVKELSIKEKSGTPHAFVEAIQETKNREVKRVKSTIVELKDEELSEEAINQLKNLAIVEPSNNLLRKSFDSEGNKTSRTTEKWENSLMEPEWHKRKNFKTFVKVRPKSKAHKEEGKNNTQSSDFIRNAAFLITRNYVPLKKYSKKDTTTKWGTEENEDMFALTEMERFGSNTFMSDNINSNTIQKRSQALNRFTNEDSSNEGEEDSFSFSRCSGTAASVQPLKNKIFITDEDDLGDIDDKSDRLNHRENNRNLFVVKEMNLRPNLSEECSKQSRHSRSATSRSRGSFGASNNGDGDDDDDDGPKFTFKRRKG

Variants of: B1
Details: with mei4_yeast MEI4, P29467

| Variant | effect of a mutation on the interaction |
| --- | --- |
| S30A | decreasing interaction strength |
| S271A | with no effect |
| S30A;S271A | decreasing interaction strength |

Variants of: B2
Details: with re114_yeast REC114, P32841

| Variant | effect of a mutation on the interaction |
| --- | --- |
| S30A;S271A | disrupting interaction strength |
| S30A | disrupting interaction strength |
| S271A | with no effect |

Variants of: B3
Details: with xrs2_yeast XRS2, P33301

| Variant | effect of a mutation on the interaction |
| --- | --- |
| S271A | decreasing interaction strength |
| S30A;S271A | disrupting interaction strength |
| S30A | disrupting interaction strength |
